What all share (assay): EMSA; 25x unlabeled probe as competitor; 1 ug protein, 20 uL reaction, room temperature 30 min; 6% native PAGE in 0.5x TBE; binding buffer, salt and pH not given
What all share (details): protein: recombinant; tags: N-terminal GST (pGEX-6P-1); label: biotin; blunt

In one data set the target is T1, GST-SMXL8 (Arabidopsis thaliana, UniProt F4IGZ2 1-910).
T1 sequence: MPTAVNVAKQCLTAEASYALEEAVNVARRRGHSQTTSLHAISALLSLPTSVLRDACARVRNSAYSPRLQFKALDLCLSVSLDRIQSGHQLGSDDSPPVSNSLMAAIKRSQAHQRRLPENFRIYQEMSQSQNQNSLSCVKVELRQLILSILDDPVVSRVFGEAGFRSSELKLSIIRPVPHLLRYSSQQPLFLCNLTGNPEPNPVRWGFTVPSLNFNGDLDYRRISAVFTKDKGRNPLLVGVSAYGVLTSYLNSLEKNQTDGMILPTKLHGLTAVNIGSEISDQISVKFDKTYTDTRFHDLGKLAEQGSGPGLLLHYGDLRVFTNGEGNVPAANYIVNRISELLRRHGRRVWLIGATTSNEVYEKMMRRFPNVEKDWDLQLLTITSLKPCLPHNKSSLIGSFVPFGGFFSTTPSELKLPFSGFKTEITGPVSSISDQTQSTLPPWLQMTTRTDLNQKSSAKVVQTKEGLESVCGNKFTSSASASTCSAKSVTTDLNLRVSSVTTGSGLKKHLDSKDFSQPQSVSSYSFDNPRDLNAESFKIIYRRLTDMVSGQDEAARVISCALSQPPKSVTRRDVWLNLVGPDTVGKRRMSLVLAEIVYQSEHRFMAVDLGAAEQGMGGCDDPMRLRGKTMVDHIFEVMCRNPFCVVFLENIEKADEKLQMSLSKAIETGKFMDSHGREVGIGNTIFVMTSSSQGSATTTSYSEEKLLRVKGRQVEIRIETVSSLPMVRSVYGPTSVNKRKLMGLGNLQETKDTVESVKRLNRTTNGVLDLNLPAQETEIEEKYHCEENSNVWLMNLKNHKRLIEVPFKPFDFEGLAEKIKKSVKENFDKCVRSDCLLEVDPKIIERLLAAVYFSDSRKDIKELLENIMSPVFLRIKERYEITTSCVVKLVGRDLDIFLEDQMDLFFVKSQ

A further data set has as its target T2, GST-SMXL6 (Arabidopsis thaliana, UniProt Q9LML2 1-979).
T2 sequence: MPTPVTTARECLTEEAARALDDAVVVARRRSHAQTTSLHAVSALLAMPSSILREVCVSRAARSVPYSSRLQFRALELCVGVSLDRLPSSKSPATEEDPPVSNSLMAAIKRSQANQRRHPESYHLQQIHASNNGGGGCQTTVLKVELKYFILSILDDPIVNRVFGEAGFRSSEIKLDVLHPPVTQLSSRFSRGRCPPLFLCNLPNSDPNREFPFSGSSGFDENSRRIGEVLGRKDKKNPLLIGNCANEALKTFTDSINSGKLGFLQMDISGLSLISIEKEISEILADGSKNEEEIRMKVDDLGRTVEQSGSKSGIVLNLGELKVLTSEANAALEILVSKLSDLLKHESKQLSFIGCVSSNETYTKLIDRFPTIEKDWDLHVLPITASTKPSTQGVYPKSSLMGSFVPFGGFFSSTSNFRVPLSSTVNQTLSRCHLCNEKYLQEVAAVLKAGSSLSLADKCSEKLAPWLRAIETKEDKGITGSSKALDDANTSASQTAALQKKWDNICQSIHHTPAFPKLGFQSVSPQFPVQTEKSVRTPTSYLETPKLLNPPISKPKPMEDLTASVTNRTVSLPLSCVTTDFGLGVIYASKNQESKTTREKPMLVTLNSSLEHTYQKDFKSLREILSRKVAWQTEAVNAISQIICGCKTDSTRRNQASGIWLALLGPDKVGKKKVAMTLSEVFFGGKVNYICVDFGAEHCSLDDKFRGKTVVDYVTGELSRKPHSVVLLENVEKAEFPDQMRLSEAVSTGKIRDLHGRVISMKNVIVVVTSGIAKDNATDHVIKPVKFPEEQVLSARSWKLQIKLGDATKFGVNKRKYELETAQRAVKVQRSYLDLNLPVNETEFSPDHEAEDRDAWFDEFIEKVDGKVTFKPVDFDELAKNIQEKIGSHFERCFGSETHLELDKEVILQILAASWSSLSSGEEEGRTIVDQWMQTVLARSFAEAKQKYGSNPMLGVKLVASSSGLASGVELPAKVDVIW

A further data set deals with T3, GST-SMXL7 (Arabidopsis thaliana, UniProt O80875 1-1002).
T3 sequence: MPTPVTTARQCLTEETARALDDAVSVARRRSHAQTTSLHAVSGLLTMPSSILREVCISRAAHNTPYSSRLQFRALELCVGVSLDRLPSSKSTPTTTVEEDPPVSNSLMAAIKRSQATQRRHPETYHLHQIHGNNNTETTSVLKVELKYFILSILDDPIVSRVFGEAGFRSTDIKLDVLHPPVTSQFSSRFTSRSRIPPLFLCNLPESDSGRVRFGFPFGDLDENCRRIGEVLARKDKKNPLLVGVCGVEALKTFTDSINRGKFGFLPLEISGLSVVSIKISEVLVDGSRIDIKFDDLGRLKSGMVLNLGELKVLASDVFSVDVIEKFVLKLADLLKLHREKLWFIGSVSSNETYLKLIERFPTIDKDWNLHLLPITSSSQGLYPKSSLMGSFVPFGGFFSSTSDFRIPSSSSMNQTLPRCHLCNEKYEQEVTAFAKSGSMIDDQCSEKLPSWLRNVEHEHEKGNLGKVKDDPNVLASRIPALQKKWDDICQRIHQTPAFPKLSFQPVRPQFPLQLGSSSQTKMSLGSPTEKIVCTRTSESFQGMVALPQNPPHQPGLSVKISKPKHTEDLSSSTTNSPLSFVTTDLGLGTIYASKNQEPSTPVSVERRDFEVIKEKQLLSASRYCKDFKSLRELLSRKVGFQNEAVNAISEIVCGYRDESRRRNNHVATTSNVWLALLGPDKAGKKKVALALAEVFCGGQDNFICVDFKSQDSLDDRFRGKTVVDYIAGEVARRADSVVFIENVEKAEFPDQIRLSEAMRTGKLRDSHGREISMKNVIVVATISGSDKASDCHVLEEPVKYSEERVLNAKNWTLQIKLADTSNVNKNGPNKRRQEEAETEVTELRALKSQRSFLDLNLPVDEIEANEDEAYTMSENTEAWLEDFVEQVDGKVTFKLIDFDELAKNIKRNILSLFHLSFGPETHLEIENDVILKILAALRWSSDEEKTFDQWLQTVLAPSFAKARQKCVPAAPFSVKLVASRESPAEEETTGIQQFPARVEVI

B1: SnRK2.6 promoter p2.6-3-1-1-a (dsDNA)
DNA 1: GACATTTGTGGTAACTTGTTTTTCTTTTATTTTCCGTTTTTAAATGCGGAAACCCTT
DNA 2: AAGGGTTTCCGCATTTAAAAACGGAAAATAAAAGAAAAACAAGTTACCACAAATGTC
With B1, the binding result with GST-SMXL8 and in the data set with GST-SMXL6 was “binds” in each case.

B2: SnRK2.3 promoter p2.3-3-1-2-a (dsDNA)
DNA 1: CTTGGGGCAACCAATTATTGCCTTTTTTCTTCCTCTCTTTCCTTATTCGTT
DNA 2: AACGAATAAGGAAAGAGAGGAAGAAAAAAGGCAATAATTGGTTGCCCCAAG
As for B2, the binding result with GST-SMXL8, in the data set with GST-SMXL6 and in the data set with GST-SMXL7 was “binds” each time.

These data come from article PMC10526831, “SUPPRESSOR OF MAX2 LIKE 6, 7, and 8 Interact with DDB1 BINDING WD REPEAT DOMAIN HYPERSENSITIVE TO ABA DEFICIENT 1 to Regulate the Drought Tolerance and Target SUCROSE NONFERMENTING 1 RELATED PROTEIN K”.
